This assay concerns the target Ero1-α(WT), recombinant (human) (UniProt Q96HE7). Put plainly: SPR.

pKd: −log10 of the molar value.

The term pKd denotes the negative decadic logarithm of the Kd, by convention in mol/L.

Sequence of UniProt Q96HE7 (Q96HE7 24-468): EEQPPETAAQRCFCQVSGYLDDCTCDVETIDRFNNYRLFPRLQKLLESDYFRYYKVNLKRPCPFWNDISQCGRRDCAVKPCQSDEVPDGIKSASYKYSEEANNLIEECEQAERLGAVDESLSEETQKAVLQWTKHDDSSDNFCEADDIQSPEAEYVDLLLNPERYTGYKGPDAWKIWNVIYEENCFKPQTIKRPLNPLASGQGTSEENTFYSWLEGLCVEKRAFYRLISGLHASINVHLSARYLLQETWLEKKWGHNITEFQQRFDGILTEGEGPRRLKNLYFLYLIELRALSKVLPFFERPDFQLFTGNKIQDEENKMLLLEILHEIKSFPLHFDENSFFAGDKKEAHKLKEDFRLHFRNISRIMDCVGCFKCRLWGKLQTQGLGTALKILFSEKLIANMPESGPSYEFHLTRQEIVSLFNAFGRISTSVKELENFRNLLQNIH

For the substance “PDI, recombinant (wild type) (from UniProt P07237 18-508) (enzyme)”, the pKd was 5.77.

Source of the values: article PMC3776355.
